Tests used:
HLA-A*01:01 [1] = experiment: IEDB peptide-MHC binding, purified MHC/direct/fluorescence; filed as Kd, often an IC50 or EC50 that approximates it; ≥ and ≤ were set here for values at or beyond the usual limits of such assays
HLA-A*02:01 [2] = experiment: as above
HLA-A*03:01 [3] = experiment: as above
HLA-A*11:01 = experiment: as above
HLA-A*26:01 [4] = experiment: as above
HLA-A*30:01 = experiment: as above
HLA-A*31:01 = experiment: as above; settings: source organism: Pseudomonas aeruginosa
HLA-A*69:01 [5] = experiment: as above
HLA-B*07:02 = experiment: as above
HLA-B*08:01 [6] = experiment: as above
HLA-B*15:01 [7] = experiment: as above
HLA-B*27:05 = experiment: as above
HLA-B*40:01 = experiment: as above
HLA-B*58:01 = experiment: as above
HLA-A*02:01 [8] = experiment: IEDB peptide-MHC binding, purified MHC/competitive/fluorescence; filed as Kd, often an IC50 or EC50 that approximates it; ≥ and ≤ were set here for values at or beyond the usual limits of such assays
HLA-A*02:03 [9] = experiment: as above; settings: source organism: Vibrio antiquarius
HLA-A*02:12 [10] = experiment: as above; settings: source organism: Vibrio antiquarius
HLA-A*02:16 [11] = experiment: as above
HLA-A*02:19 [12] = experiment: as above; settings: source organism: Vibrio antiquarius
HLA-A*03:01 [13] = experiment: as above; settings: source organism: Vibrio antiquarius
HLA-A*24:03 [14] = experiment: as above; settings: source organism: Vibrio antiquarius
HLA-A*26:01 [15] = experiment: as above
HLA-A*68:02 [16] = experiment: as above; settings: source organism: Vibrio antiquarius
HLA-A*69:01 [17] = experiment: as above
HLA-B*15:01 [18] = experiment: as above
HLA-B*18:01 = experiment: as above
HLA-B*27:03 = experiment: as above
HLA-B*39:01 = experiment: as above
HLA-B*46:01 = experiment: as above
HLA-B*51:01 = experiment: as above
HLA-B*57:01 = experiment: as above
HLA-A*02:03 [19] = experiment: IEDB peptide-MHC binding, purified MHC/direct/fluorescence; filed as Kd, often an IC50 or EC50 that approximates it; ≥ and ≤ were set here for values at or beyond the usual limits of such assays; settings: source organism: Influenza A virus (A/England/654/2007(H1N1))
HLA-A*02:11 = experiment: as above; settings: source organism: Influenza A virus (A/England/654/2007(H1N1))
HLA-A*02:12 [20] = experiment: as above; settings: source organism: Influenza A virus (A/England/654/2007(H1N1))
HLA-A*02:16 [21] = experiment: as above; settings: source organism: Influenza A virus (A/England/654/2007(H1N1))
HLA-A*02:19 [22] = experiment: as above; settings: source organism: Influenza A virus (A/England/654/2007(H1N1))
HLA-A*23:01 = experiment: as above
HLA-A*24:03 [23] = experiment: as above
HLA-A*29:02 = experiment: as above; settings: source organism: Influenza A virus (A/England/654/2007(H1N1))
HLA-A*68:02 [24] = experiment: as above; settings: source organism: Influenza A virus (A/England/654/2007(H1N1))
HLA-A*01:01 [25] = experiment: IEDB peptide-MHC binding, purified MHC/competitive/fluorescence; filed as Kd, often an IC50 or EC50 that approximates it; ≥ and ≤ were set here for values at or beyond the usual limits of such assays; settings: source organism: Influenza A virus (A/Yokohama/22/2002(H1N2))
HLA-B*15:17 = experiment: as above; settings: source organism: Influenza A virus (A/Yokohama/22/2002(H1N2))
HLA-B*08:01 [26] = experiment: as above; settings: source organism: Salmonella enterica subsp. enterica serovar Typhi
HLA-B*44:02 = experiment: IEDB peptide-MHC binding, purified MHC/direct/fluorescence; filed as Kd, often an IC50 or EC50 that approximates it; ≥ and ≤ were set here for values at or beyond the usual limits of such assays; settings: source organism: Yersinia enterocolitica
[27] = source organism: Pseudomonas aeruginosa
[28] = source organism: Vibrio antiquarius
[29] = source organism: Influenza A virus (A/England/654/2007(H1N1))
[30] = source organism: Influenza A virus (A/Yokohama/22/2002(H1N2))
[31] = source organism: Toxoplasma gondii ME49
[32] = source organism: Salmonella enterica subsp. enterica serovar Typhi
[33] = source organism: Yersinia enterocolitica
[34] = source organism: Burkholderia mallei ATCC 23344
[35] = source organism: Pseudomonas aeruginosa UCBPP-PA14

Sequence: DLPPAIAAE
- Kd (HLA-A*01:01 [1]; [27]): ≥ 20 µM
- Kd (HLA-A*02:01 [2]; [27]): ≥ 20 µM
- Kd (HLA-A*03:01 [3]; [27]): ≥ 20 µM
- Kd (HLA-A*11:01; [27]): ≥ 20 µM
- Kd (HLA-A*26:01 [4]; [27]): 1.95 µM
- Kd (HLA-A*30:01; [27]): 12.6 µM
- Kd (HLA-A*31:01): ≥ 20 µM
- Kd (HLA-A*69:01 [5]; [27]): ≥ 20 µM
- Kd (HLA-B*07:02; [27]): ≥ 20 µM
- Kd (HLA-B*08:01 [6]; [27]): ≥ 20 µM
- Kd (HLA-B*15:01 [7]; [27]): ≥ 10 µM
- Kd (HLA-B*27:05; [27]): ≥ 20 µM
- Kd (HLA-B*40:01; [27]): ≥ 20 µM
- Kd (HLA-B*58:01; [27]): ≥ 20 µM

Sequence: FDLFGITLY
- Kd (HLA-A*02:01 [8]; [28]): ≥ 20 µM
- Kd (HLA-A*02:03 [9]): ≥ 20 µM
- Kd (HLA-A*02:12 [10]): ≥ 20 µM
- Kd (HLA-A*02:16 [11]; [28]): ≥ 20 µM
- Kd (HLA-A*02:19 [12]): ≥ 20 µM
- Kd (HLA-A*03:01 [13]): ≥ 20 µM
- Kd (HLA-A*24:03 [14]): ≥ 20 µM
- Kd (HLA-A*26:01 [15]; [28]): ≥ 20 µM
- Kd (HLA-A*68:02 [16]): ≥ 20 µM
- Kd (HLA-A*69:01 [17]; [28]): ≥ 20 µM
- Kd (HLA-B*15:01 [18]; [28]): ≥ 20 µM
- Kd (HLA-B*18:01; [28]): 0.279 µM
- Kd (HLA-B*27:03; [28]): ≥ 20 µM
- Kd (HLA-B*39:01; [28]): ≥ 20 µM
- Kd (HLA-B*46:01; [28]): ≥ 20 µM
- Kd (HLA-B*51:01; [28]): ≥ 20 µM
- Kd (HLA-B*57:01; [28]): ≥ 20 µM

Sequence: WTGMVDGWY
- Kd (HLA-A*02:03 [19]): ≥ 20 µM
- Kd (HLA-A*02:11): ≥ 20 µM
- Kd (HLA-A*02:12 [20]): ≥ 20 µM
- Kd (HLA-A*02:16 [21]): ≥ 20 µM
- Kd (HLA-A*02:19 [22]): ≥ 20 µM
- Kd (HLA-A*03:01 [3]; [29]): ≥ 20 µM
- Kd (HLA-A*23:01; [29]): ≥ 20 µM
- Kd (HLA-A*24:03 [23]; [29]): ≥ 20 µM
- Kd (HLA-A*29:02): ≥ 20 µM
- Kd (HLA-A*68:02 [24]): ≥ 20 µM
- Kd (HLA-A*01:01 [25]): 0.0103 µM
- Kd (HLA-A*02:01 [8]; [30]): ≥ 20 µM
- Kd (HLA-A*26:01 [15]; [30]): ≥ 20 µM
- Kd (HLA-A*69:01 [17]; [30]): ≥ 20 µM
- Kd (HLA-B*15:01 [18]; [30]): ≥ 20 µM
- Kd (HLA-B*15:17): ≥ 20 µM
- Kd (HLA-B*18:01; [30]): ≥ 20 µM
- Kd (HLA-B*27:03; [30]): ≥ 20 µM
- Kd (HLA-B*39:01; [30]): ≥ 20 µM
- Kd (HLA-B*46:01; [30]): ≥ 20 µM
- Kd (HLA-B*51:01; [30]): ≥ 20 µM
- Kd (HLA-B*57:01; [30]): ≥ 20 µM

Sequence: FGGGPWWEV
- Kd (HLA-A*02:01 [8]; [31]): 0.0122 µM
- Kd (HLA-A*02:16 [11]; [31]): 0.0084 µM

Sequence: WLMKYPYQL
- Kd (HLA-A*02:01 [8]; [32]): 0.0002 µM
- Kd (HLA-B*08:01 [26]): 0.0886 µM
- Kd (HLA-B*39:01; [32]): ≤ 0.001 µM

Sequence: GYGRVNAGK
- Kd (HLA-A*01:01 [1]; [33]): ≥ 20 µM
- Kd (HLA-A*02:01 [2]; [33]): ≥ 20 µM
- Kd (HLA-A*03:01 [3]; [33]): ≥ 20 µM
- Kd (HLA-A*11:01; [33]): 6.54 µM
- Kd (HLA-A*24:03 [23]; [33]): 10.3 µM
- Kd (HLA-A*26:01 [4]; [33]): ≥ 20 µM
- Kd (HLA-A*30:01; [33]): 9.1 µM
- Kd (HLA-A*69:01 [5]; [33]): ≥ 20 µM
- Kd (HLA-B*07:02; [33]): ≥ 20 µM
- Kd (HLA-B*08:01 [6]; [33]): ≥ 20 µM
- Kd (HLA-B*15:01 [7]; [33]): ≥ 20 µM
- Kd (HLA-B*27:05; [33]): ≥ 20 µM
- Kd (HLA-B*40:01; [33]): ≥ 20 µM
- Kd (HLA-B*44:02): ≥ 20 µM
- Kd (HLA-B*58:01; [33]): ≥ 20 µM

Sequence: PFFFGFSHF
- Kd (HLA-A*23:01; [34]): 0.024 µM
- Kd (HLA-A*24:03 [23]; [34]): 0.704 µM

Sequence: RTGTRLLGR
- Kd (HLA-A*01:01 [1]; [35]): ≥ 20 µM
- Kd (HLA-A*02:01 [2]; [35]): ≥ 20 µM
- Kd (HLA-A*03:01 [3]; [27]): 0.252 µM
- Kd (HLA-A*11:01; [27]): 0.197 µM
- Kd (HLA-A*24:03 [23]; [35]): ≥ 20 µM
- Kd (HLA-A*26:01 [4]; [35]): ≥ 20 µM
- Kd (HLA-A*30:01; [27]): 12 µM
- Kd (HLA-A*31:01): 0.052 µM
- Kd (HLA-A*69:01 [5]; [35]): ≥ 20 µM
- Kd (HLA-B*07:02; [35]): ≥ 20 µM
- Kd (HLA-B*08:01 [6]; [35]): ≥ 20 µM
- Kd (HLA-B*15:01 [7]; [35]): ≥ 20 µM
- Kd (HLA-B*27:05; [35]): ≥ 20 µM
- Kd (HLA-B*40:01; [35]): ≥ 20 µM
- Kd (HLA-B*58:01; [35]): ≥ 20 µM
